Results taken from paper PMC3928310, “Model of a DNA-Protein Complex of the Architectural Monomeric Protein MC1 from Euryarchaea”.

Assays:
Experiment in all cases: EMSA; EMSA: 10 mM Tris-HCl pH 7.5, 150 mM NaCl, 1 mM EDTA, 15 ug/ml BSA, 8% glycerol, 15 min at 20 C, 0.1 nM DNA, TBE gel; NMR PRE: 10 mM phosphate pH 6, 100 mM NaCl, 10% D2O
Conditions in all cases: protein: recombinant; label: 5'-32P on one strand; blunt
[1] = target: T1, MC1 R25A (Methanosarcina thermophila CHTI55, UniProt P12770 1-93, R25A)
T1 sequence: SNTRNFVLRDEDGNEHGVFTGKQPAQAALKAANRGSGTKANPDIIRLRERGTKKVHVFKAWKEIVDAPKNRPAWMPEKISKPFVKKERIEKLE

[2] = target: T2, MC1 W74F (Methanosarcina thermophila CHTI55, UniProt P12770 1-93, W74F)
T2 sequence: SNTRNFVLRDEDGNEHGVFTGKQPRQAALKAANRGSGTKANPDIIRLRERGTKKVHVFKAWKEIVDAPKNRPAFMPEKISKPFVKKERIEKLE

[3] = target: T3, MC1 I89A (Methanosarcina thermophila CHTI55, UniProt P12770 1-93, I89A)
T3 sequence: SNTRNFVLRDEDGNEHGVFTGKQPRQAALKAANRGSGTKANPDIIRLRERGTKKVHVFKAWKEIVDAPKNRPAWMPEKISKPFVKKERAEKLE

[4] = target: T4, MC1 R71A (Methanosarcina thermophila CHTI55, UniProt P12770 1-93, R71A)
T4 sequence: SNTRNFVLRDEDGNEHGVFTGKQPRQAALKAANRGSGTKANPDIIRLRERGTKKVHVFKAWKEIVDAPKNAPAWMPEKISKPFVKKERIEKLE

[5] = target: T5, MC1 P72A (Methanosarcina thermophila CHTI55, UniProt P12770 1-93, P72A)
T5 sequence: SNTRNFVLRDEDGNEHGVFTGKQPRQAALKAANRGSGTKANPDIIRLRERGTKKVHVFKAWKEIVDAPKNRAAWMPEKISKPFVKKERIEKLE

[6] = target: T6, MC1 R25Q (Methanosarcina thermophila CHTI55, UniProt P12770 1-93, R25Q)
T6 sequence: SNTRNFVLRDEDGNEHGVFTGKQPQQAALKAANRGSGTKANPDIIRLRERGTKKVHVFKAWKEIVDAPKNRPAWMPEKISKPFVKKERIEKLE

[7] = target: T7, MC1 Q23E (Methanosarcina thermophila CHTI55, UniProt P12770 1-93, Q23E)
T7 sequence: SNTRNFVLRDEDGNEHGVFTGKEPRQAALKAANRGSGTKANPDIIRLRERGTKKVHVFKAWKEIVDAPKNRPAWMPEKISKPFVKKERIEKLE

B1: 26 bp EMSA duplex (dsDNA)
DNA 1: GCCTCAAAAACACACACCCCCGACAG
DNA 2: CTGTCGGGGGTGTGTGTTTTTGAGGC
Kd [1]: 161 ± 14 nM
Kd [2]: 8.4 ± 1 nM
Kd [3]: 15.4 ± 2 nM
Kd [4]: 3.6 ± 0.2 nM
Kd [5]: 4.2 ± 0.5 nM
Kd [6]: 552 ± 34 nM
Kd [7]: 9.05 ± 2 nM
